# In patent US12679878B2, “CRF2 receptor agonists and their use in therapy” (SANOFI, priority 2020, dated 2026):
# Starred links: 1 amine or outer side, 2 acyl side, 3 side chain; linkers in the order of their positions; H or OH if unused. Groups on a side chain read outwards from the residue. No end group written: not given here. *: point of attachment. C20 diacid = O=C(O)CCCCCCCCCCCCCCCCCCC(=O)*; C18 diacid = O=C(O)CCCCCCCCCCCCCCCCC(=O)*; γGlu = O=C(O)[C@H](CCC(=O)[*:2])N[*:1]; AEEA = NCCOCCOCC(=O)O
# T1: anti-target CRF1R receptor (UniProt P34998 24-415, limits assumed)
# T1 sequence (looked up): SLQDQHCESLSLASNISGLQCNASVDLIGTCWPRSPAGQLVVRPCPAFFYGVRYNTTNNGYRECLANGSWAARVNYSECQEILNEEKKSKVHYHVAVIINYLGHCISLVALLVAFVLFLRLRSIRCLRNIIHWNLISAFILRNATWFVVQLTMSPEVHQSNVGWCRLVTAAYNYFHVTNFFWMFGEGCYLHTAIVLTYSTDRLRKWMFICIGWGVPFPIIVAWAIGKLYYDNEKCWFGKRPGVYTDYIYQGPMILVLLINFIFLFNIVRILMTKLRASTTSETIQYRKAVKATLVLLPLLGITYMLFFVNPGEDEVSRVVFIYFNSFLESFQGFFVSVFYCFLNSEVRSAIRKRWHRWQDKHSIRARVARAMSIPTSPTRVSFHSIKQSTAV
# B1: peptide of SEQ ID NO: 54 (peptide)
# peptide: FTLSLDVPIKLK([AEEA-AEEA-γGlu-C18 diacid])QILLKQQKQKKERQQAETNVQLLERV-NH2
# modifications: N-terminus assumed
# SMILES: CC[C@H](C)[C@H](NC(=O)[C@H](CCC(N)=O)NC(=O)[C@H](CCCCNC(=O)COCCOCCNC(=O)COCCOCCNC(=O)CC[C@H](NC(=O)CCCCCCCCCCCCCCCCC(=O)O)C(=O)O)NC(=O)[C@H](CC(C)C)NC(=O)[C@H](CCCCN)NC(=O)[C@@H](NC(=O)[C@@H]1CCCN1C(=O)[C@@H](NC(=O)[C@H](CC(=O)O)NC(=O)[C@H](CC(C)C)NC(=O)[C@H](CO)NC(=O)[C@H](CC(C)C)NC(=O)[C@@H](NC(=O)[C@@H](N)Cc1ccccc1)[C@@H](C)O)C(C)C)[C@@H](C)CC)C(=O)N[C@@H](CC(C)C)C(=O)N[C@@H](CC(C)C)C(=O)N[C@@H](CCCCN)C(=O)N[C@@H](CCC(N)=O)C(=O)N[C@@H](CCC(N)=O)C(=O)N[C@@H](CCCCN)C(=O)N[C@@H](CCC(N)=O)C(=O)N[C@@H](CCCCN)C(=O)N[C@@H](CCCCN)C(=O)N[C@@H](CCC(=O)O)C(=O)N[C@@H](CCCNC(=N)N)C(=O)N[C@@H](CCC(N)=O)C(=O)N[C@@H](CCC(N)=O)C(=O)N[C@@H](C)C(=O)N[C@@H](CCC(=O)O)C(=O)N[C@H](C(=O)N[C@@H](CC(N)=O)C(=O)N[C@H](C(=O)N[C@@H](CCC(N)=O)C(=O)N[C@@H](CC(C)C)C(=O)N[C@@H](CC(C)C)C(=O)N[C@@H](CCC(=O)O)C(=O)N[C@@H](CCCNC(=N)N)C(=O)N[C@H](C(N)=O)C(C)C)C(C)C)[C@@H](C)O
# B2: peptide of SEQ ID NO: 53 (peptide)
# peptide: FTLSLDVPTKIK([AEEA-AEEA-γGlu-C18 diacid])QILLKQQKQKKERQQAETNKQLLERV-NH2
# modifications: N-terminus assumed
# SMILES: CC[C@H](C)[C@H](NC(=O)[C@H](CCC(N)=O)NC(=O)[C@H](CCCCNC(=O)COCCOCCNC(=O)COCCOCCNC(=O)CC[C@H](NC(=O)CCCCCCCCCCCCCCCCC(=O)O)C(=O)O)NC(=O)[C@@H](NC(=O)[C@H](CCCCN)NC(=O)[C@@H](NC(=O)[C@@H]1CCCN1C(=O)[C@@H](NC(=O)[C@H](CC(=O)O)NC(=O)[C@H](CC(C)C)NC(=O)[C@H](CO)NC(=O)[C@H](CC(C)C)NC(=O)[C@@H](NC(=O)[C@@H](N)Cc1ccccc1)[C@@H](C)O)C(C)C)[C@@H](C)O)[C@@H](C)CC)C(=O)N[C@@H](CC(C)C)C(=O)N[C@@H](CC(C)C)C(=O)N[C@@H](CCCCN)C(=O)N[C@@H](CCC(N)=O)C(=O)N[C@@H](CCC(N)=O)C(=O)N[C@@H](CCCCN)C(=O)N[C@@H](CCC(N)=O)C(=O)N[C@@H](CCCCN)C(=O)N[C@@H](CCCCN)C(=O)N[C@@H](CCC(=O)O)C(=O)N[C@@H](CCCNC(=N)N)C(=O)N[C@@H](CCC(N)=O)C(=O)N[C@@H](CCC(N)=O)C(=O)N[C@@H](C)C(=O)N[C@@H](CCC(=O)O)C(=O)N[C@H](C(=O)N[C@@H](CC(N)=O)C(=O)N[C@@H](CCCCN)C(=O)N[C@@H](CCC(N)=O)C(=O)N[C@@H](CC(C)C)C(=O)N[C@@H](CC(C)C)C(=O)N[C@@H](CCC(=O)O)C(=O)N[C@@H](CCCNC(=N)N)C(=O)N[C@H](C(N)=O)C(C)C)[C@@H](C)O
# Target: rat CRF2R α receptor (rat, UniProt P47866 20-411)
# Sequence (P47866 20-411): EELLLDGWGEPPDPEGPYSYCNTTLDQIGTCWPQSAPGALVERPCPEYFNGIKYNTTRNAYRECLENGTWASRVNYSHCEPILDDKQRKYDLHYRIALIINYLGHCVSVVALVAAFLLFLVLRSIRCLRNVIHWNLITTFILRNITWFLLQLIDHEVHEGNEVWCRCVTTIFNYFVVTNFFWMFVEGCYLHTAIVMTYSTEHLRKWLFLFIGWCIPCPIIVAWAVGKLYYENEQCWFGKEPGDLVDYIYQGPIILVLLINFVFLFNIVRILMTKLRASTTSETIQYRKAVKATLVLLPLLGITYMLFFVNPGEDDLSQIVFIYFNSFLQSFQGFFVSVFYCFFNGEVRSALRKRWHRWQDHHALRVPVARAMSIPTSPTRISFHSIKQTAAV
# Test: cell-based or functional assay
row,"EC50 [nM], 0% HSA (cAMP, A7R5 cells) [nM]",Binder
1,0.72,FTLSLDVPTKIK([AEEA-AEEA-γGlu-C20 diacid])QILFKQQKQKKERQQAEKNKQLLEQI-NH2 [peptide of SEQ ID NO: 58]
2,1.35,FTLSLDVPTKIK([AEEA-AEEA-γGlu-C20 diacid])QILLKQQKQKKERQQAEKNKQLLERV-NH2 [peptide of SEQ ID NO: 60]
3,1.51,B1
4,1.32,B2

# Target: T1, anti-target CRF1R receptor
# Test: cell-based or functional assay
"EC50[nM] 0% HSA (cAMP, CRF1R-overexpression CHO cells) [nM]","Emax (%) (cAMP, CRF1R-overexpression CHO cells)",Binder
> 1000,9.12,FTLSLDVPTKIK([AEEA-AEEA-γGlu-C20 diacid])QILFKQQKQKKERQQAEKNKQLLEQI-NH2 [peptide of SEQ ID NO: 58]
> 1000,4.84,FTLSLDVPTKIK([AEEA-AEEA-γGlu-C20 diacid])QILLKQQKQKKERQQAEKNKQLLERV-NH2 [peptide of SEQ ID NO: 60]
> 1000,2.72,B1
> 1000,4.14,B2
